Reference: publication PMC6639331

Key:
[1] = biological target: CCR4a, full length (human) (human) (UniProt Q9ULM6); experiment: co-purification (metal affinity, SEC, anion exchange); CCR4a and CAF1 co-expressed in E. coli; nickel IMAC, tags cleaved by TEV, Superdex 200 in 10 mM HEPES/NaOH pH 7.5, 300 mM NaCl, 2 mM DTT, then Source 15Q
[2] = biological target: NOT1:NOT2:NOT3:CAF40 subcomplex (full-length subunits) (human) (UniProt A5YKK6); experiment: SEC-MALS; reconstituted CCR4-NOT FULL, 40 ul at 0.9 mg/ml, Superose 6 5/150 in 10 mM HEPES/NaOH pH 7.5, 200 mM NaCl; SDS-PAGE with Coomassie staining of the complex
Chain of NOT1:NOT2:NOT3:CAF40 subcomplex (full-length subunits) (human) (A5YKK6 whole entry, chain 1 of 4): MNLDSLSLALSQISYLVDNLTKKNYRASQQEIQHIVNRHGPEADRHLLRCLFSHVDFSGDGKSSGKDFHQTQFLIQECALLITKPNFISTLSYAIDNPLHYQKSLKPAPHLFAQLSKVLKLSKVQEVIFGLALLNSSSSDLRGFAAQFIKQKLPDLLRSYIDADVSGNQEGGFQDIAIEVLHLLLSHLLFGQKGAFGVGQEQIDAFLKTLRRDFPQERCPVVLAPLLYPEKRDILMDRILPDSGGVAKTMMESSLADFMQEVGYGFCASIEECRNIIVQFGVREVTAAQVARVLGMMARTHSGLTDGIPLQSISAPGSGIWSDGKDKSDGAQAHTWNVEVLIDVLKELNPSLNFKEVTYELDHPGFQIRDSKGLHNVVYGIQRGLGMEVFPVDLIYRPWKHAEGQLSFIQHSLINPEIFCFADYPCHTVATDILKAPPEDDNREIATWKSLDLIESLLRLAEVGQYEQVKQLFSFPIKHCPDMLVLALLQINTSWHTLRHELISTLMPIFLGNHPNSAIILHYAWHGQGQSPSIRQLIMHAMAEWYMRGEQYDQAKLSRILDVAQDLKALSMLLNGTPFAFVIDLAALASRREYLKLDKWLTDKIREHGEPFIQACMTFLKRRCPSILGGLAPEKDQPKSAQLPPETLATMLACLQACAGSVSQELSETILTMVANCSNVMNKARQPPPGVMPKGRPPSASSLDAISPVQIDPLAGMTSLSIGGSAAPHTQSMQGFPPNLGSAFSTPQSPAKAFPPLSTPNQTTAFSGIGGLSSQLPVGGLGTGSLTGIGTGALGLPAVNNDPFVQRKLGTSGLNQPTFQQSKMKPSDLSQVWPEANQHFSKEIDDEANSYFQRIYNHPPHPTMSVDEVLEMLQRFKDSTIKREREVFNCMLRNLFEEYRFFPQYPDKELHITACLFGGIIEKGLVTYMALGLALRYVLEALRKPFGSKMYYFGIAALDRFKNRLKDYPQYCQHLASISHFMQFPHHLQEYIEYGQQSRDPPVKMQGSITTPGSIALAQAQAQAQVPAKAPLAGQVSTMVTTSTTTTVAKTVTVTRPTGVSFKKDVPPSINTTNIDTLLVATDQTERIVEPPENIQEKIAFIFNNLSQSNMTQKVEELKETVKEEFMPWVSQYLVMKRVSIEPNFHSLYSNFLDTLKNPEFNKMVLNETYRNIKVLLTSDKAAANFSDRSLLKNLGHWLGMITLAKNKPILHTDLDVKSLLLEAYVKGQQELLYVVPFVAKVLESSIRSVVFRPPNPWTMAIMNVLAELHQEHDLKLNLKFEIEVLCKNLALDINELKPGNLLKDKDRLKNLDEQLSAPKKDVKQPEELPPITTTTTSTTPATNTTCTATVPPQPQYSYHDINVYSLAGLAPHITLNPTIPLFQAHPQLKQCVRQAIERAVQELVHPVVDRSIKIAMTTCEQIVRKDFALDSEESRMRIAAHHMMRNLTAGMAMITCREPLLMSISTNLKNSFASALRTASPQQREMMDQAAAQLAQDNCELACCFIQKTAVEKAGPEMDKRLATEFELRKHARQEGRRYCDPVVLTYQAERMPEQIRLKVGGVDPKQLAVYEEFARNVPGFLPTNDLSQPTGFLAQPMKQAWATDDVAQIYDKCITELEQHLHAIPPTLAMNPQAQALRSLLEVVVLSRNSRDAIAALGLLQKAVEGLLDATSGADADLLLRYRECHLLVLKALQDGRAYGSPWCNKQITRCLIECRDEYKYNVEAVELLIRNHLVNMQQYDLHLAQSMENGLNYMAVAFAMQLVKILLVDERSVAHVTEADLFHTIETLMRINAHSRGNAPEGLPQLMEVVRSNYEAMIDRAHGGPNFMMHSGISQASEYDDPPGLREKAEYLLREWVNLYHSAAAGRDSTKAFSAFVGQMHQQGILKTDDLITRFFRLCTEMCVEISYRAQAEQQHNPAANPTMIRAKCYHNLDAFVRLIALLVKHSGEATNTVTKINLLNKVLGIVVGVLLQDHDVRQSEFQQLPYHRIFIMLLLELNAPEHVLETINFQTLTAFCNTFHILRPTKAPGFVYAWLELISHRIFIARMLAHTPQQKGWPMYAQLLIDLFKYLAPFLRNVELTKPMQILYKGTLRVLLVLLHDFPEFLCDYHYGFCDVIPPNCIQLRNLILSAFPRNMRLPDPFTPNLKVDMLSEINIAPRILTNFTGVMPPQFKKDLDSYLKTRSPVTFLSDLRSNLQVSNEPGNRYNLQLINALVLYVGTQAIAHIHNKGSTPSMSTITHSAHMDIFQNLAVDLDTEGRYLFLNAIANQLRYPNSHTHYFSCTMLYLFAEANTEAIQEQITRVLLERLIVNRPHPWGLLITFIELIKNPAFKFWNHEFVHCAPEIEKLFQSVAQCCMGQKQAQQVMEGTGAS
Chain of NOT1:NOT2:NOT3:CAF40 subcomplex (full-length subunits) (human) (Q9NZN8 whole entry, chain 2 of 4, further chain): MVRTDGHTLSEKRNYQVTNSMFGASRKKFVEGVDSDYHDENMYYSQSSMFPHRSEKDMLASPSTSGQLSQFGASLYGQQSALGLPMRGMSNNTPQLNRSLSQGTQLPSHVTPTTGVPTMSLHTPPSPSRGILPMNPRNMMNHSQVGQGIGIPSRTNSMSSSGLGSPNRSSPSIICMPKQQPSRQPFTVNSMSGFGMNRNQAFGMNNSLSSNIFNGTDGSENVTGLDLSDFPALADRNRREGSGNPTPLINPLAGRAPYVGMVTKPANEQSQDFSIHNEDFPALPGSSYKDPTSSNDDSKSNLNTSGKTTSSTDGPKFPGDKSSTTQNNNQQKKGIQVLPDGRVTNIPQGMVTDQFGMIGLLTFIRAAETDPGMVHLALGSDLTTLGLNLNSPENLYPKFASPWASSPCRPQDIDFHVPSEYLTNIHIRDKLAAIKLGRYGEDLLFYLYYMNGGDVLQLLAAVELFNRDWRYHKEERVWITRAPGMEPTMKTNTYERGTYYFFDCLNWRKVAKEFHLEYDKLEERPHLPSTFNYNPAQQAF
Chain of NOT1:NOT2:NOT3:CAF40 subcomplex (full-length subunits) (human) (O75175 whole entry, chain 3 of 4, further chain): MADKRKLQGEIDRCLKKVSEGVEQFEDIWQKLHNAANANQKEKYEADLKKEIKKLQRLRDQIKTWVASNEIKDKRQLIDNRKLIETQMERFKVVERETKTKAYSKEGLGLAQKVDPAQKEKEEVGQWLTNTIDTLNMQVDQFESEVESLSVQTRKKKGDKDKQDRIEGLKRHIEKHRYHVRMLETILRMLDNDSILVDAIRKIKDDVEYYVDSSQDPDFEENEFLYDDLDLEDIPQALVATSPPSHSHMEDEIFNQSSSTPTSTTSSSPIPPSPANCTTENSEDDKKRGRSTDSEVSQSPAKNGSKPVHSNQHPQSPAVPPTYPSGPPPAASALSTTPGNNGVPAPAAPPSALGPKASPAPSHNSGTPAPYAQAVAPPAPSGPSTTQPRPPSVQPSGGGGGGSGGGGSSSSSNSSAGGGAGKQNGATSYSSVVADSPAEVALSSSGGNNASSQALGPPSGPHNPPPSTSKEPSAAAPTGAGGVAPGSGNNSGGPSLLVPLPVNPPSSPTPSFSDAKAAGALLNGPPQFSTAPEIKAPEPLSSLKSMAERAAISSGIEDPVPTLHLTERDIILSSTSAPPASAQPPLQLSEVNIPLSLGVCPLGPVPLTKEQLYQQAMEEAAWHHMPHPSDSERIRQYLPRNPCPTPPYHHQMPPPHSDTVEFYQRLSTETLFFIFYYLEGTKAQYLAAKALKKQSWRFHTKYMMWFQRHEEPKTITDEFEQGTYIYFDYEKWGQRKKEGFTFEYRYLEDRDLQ
Chain of NOT1:NOT2:NOT3:CAF40 subcomplex (full-length subunits) (human) (Q92600 whole entry, chain 4 of 4, further chain): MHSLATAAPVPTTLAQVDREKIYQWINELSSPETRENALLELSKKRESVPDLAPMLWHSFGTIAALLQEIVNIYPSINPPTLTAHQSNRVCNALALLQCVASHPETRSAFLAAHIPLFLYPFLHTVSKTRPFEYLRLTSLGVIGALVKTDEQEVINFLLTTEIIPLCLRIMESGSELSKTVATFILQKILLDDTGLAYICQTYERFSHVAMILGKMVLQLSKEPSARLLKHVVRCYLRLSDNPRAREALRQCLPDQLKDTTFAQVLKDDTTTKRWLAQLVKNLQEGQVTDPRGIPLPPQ

Chain of CCR4a, full length (human) (human) (Q9ULM6 whole entry): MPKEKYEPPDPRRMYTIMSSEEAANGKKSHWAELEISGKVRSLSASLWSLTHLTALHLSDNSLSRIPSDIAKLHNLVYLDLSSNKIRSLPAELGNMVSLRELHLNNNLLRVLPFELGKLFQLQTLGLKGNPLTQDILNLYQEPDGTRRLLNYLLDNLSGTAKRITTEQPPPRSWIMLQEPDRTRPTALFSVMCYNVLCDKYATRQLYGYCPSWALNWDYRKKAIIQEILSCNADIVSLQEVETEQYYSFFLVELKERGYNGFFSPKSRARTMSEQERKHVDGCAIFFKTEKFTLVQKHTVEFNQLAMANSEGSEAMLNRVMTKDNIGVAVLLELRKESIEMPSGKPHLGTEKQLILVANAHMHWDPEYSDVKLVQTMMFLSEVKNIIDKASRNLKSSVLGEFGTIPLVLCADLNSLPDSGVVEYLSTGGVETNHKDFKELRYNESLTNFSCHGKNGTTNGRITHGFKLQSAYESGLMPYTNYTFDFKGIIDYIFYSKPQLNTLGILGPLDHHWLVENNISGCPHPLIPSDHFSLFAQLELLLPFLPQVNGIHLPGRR
Chain of CAF1, full length (human) (Q9UIV1 whole entry): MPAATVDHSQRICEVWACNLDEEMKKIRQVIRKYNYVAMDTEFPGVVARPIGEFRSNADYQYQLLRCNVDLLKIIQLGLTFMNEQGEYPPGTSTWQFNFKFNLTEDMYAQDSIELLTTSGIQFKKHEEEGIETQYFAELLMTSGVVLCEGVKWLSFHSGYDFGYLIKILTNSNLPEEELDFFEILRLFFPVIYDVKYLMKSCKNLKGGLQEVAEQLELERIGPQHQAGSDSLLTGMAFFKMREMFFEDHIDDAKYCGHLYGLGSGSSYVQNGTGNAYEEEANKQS

Substance | stoichiometry N [1] | stoichiometry N [2]
CAF1, full length (human) (from UniProt Q9UIV1 1-285) (enzyme) | 1 | –
CCR4a:CAF1 exonuclease heterodimer (wild type) (from UniProt Q9ULM6 1-557; Q9UIV1 1-285) (complex) | – | 1
